Test results from patent publication US20060110769A1, “Regulation of novel human prolyl 4-hydroxylases” (Bayer Aktiengesellschaft, priority 2001, published 2006).

What was measured:
Type in all cases: cell-based, human
HIF-1 alpha = assay: Cotransfection reporter assay (HIF-RE2-luc) with HIF-1 alpha in HEK/293 cells; details: for sensitivity of double mutant HIF-1 alpha (P402/577G) activity to cotransfected hydroxylase: HEK/293, double mutant, constitutively active; for sensitivity of HIF-1 alpha P402G mutant to cotransfected hydroxylase, versus wild type HIF-1 alpha: HEK/293, glycine substituted for P402; for sensitivity of HIF-1 alpha P577 mutant to cotransfected hydroxylase: HEK/293, mutation of P577; for reduction of transactivation activity of cotransfected HIF-1 alpha on hypoxia responsive reporter gene construct: HEK/293, wild type HIF-1 alpha, equal amounts of each plasmid transfected
Method: (§1) HIF-prolyl hydroxylase activity of PH-2 was examined in a cellular co-transfection assay in HEK/293 cells. In a typical experiment, cells were seeded at a density of 2×10^4 cells per well in 96-well tissue culture plates (Greiner, Germany) and grown in DMEM F12 tissue culture medium (Gibco) supplemented with 10% fetal calf serum (PAA) and antibiotics for 24 hours at 37° C. in a humidified tissue culture incubator (Heraeus, Germany) in a 5% CO2 atmosphere. Plasmid DNA was introduced into the HEK/293 cells by use of Lipofectamin reagent (Gibco) according to the manufacturer's instructions.
(§2) The following expression plasmids were used in transfection experiments. pCDNA3 cloning vectors were obtained from Invitrogen: • HIF-1alpha pcDNA3 containing the coding sequence of mouse hypoxia inducible factor-1 alpha (Gene bank accession number: NM_010431). • HIF-1 alpha P402G pcDNA3 containing the coding sequence of mouse hypoxia inducible factor-1 alpha in which the HIF proline hydroxylase sensitive proline residue at position 402 was replaced with glycine by site-directed mutagenesis using QuickChange™ XL Site-Directed Mutagenesis Kit, Stratagene. • HIF-1 alpha P577G pcDNA3 containing the coding sequence of mouse hypoxia inducible factor-1alpha in which the HIF proline hydroxylase sensitive proline residue at position 577 (the ortholog of P564 of human HIF) was replaced with glycine by site-directed mutagenesis using QuickChange™ XL Site-Directed Mutagenesis Kit, Stratagene. • HIF-1 alpha P402/577G pcDNA3 containing the coding sequence of mouse hypoxia inducible factor-1alpha in which both HIF proline hydroxylase sensitive proline residues at positions 402 and 577 were replaced with glycine by site-directed mutagenesis using QuickChange™ XL Site-Directed Mutagenesis Kit, Stratagene. • HIF-2 alpha pcDNA3 containing the coding sequence of mouse hypoxia inducible factor-2 alpha (Gene bank accession number: AF045160). • HIF-RE2-luc, HIF reporter construct (constructed in pGL3, Promega) consisting of a minimal promoter containing a tandem of hypoxia responsible elements (FIG. 5, bold underlined) and the CMV promoter TATA box (FIG. 5, underlined) upstream of the firefly luciferase gene. • pRLTK (Promega) containing the coding sequence of renilla luciferase, used as transfection standard. • PH-alpha(I) pcDNA3 containing the coding sequence of human prolyl 4-hydroxylase alpha (I) (Gene bank accession number: U14620). • EGLN3 pcDNA3 containing the coding sequence of a recently identified human HIF-prolyl-hydroxylase (Epstein et al., Cell 107, 43-54, 2001; Bruick & McKnight, Science 294, 1337-40, 2001; gene bank accession number: XM—052824). • PH-2 pcDNA3 containing the coding sequence from SEQ ID NO:3.
(§3) In a typical experiment, 30 ng of HIF-RE2 pGL3 luciferase reporter plasmid and 10 ng pRLTK internal standard were cotransfected with prolyl-4 hydroxylase and HIF pCDNA3 expression plasmids. The amount of transfected pCDNA3 plasmids was kept constant at 60 ng by filling up with pCDNA3 empty cloning vector. Twenty-four hours later, luciferase activity was measured in a lumibox equipped with a Hamamatsu camera (Hamamatsu Photonics, Japan) using after lysis of cells in luciferase buffer.
A luciferase reporter construct in which a tandem of hypoxia responsive elements linked to a minimal promoter drive firefly luciferase was cotransfected with HIF-1 alpha and HIF-2 alpha, respectively, and with the candidate HIF prolyl 4-hydroxylases EGLN3 and PH-2, respectively.

HIF-2 alpha = assay: Cotransfection reporter assay (HIF-RE2-luc) with HIF-2 alpha in HEK/293 cells; details: for activity of HIF-2 alpha on reporter: HEK/293, hydroxylase and HIF-2 alpha cotransfected in a ratio 10:1; for activity on HIF-2 alpha compared with activity on HIF-1 alpha: HEK/293 cotransfection reporter assay
Method: as §1, §2, §3

HIF-2 alpha protein = assay: Western blot analysis of HIF-2 alpha protein in cotransfected HEK/293 cells; details: HEK/293, HIF-2 alpha specific polyclonal antibody
Method: as §1, with “instructions. […]” for “instructions.”

[1] = HEK/293, equal amounts of each plasmid transfected

Row | Molecule | sensitivity of double mutant HIF-1 alpha (P402/577G) activity to cotransfected hydroxylase (HIF-1 alpha) | sensitivity of HIF-1 alpha P402G mutant to cotransfected hydroxylase, versus wild type HIF-1 alpha (HIF-1 alpha) | sensitivity of HIF-1 alpha P577 mutant to cotransfected hydroxylase (HIF-1 alpha) | reduction of transactivation activity of cotransfected HIF-1 alpha on hypoxia responsive reporter gene construct (HIF-1 alpha) | activity of HIF-2 alpha on the hypoxia responsive reporter gene construct (HIF-2 alpha; [1]) | activity of HIF-2 alpha on reporter (HIF-2 alpha) | activity on HIF-2 alpha compared with activity on HIF-1 alpha (HIF-2 alpha) | HIF-2 alpha protein by Western blot (HIF-2 alpha protein) | activity on HIF-2 alpha relative to EGLN3 (HIF-2 alpha; [1])
1 | EGLN3: recently identified human HIF-prolyl-hydroxylase (gene bank accession number XM—052824), expressed from EGLN3 pcDNA3 (protein) MPLGHIMRLDLEKIALEYIVPCLHEVGFCYLDNFLGEVVGDCVLERVKQLHCTGALRDGQLAGPRAGVSKRHLRGDQITWIGGNEEGCEAISFLLSLIDRLVLYCGSRLGKYYVKERSKAMVACYPGNGTGYVRHVDNPNGDGRCITCIYYLNKNWDAKLHGGILRIFPEGKSFIADVEPIFDRLLFFWSDRRNPHEVQPSYATRYAMTVWYFDAEERAEAKKKFRNLTRKTESALTED | almost completely resistant | equally sensitive | less sensitive | about 90% | reduced | completely abolished | less active | disappearance | 
2 | PH-2: novel human prolyl 4-hydroxylase, SEQ ID NO:4; expressed from PH-2 pcDNA3 containing the coding sequence from SEQ ID NO:3 (protein, listed as Homo sapiens) MAAAAVTGQRPETAAAEEASRPQWAPPDHCQAQAAAGLGDGEDAPVRPLCKPRGICSRAYFLVLMVFVHLYLGNVLALLLFVHYSNGDESSDPGPQHRAQGPGPEPTLGPLTRLEGIKVGHERKVQLVTDRDHFIRTLSLKPLLFEIPGFLTDEECRLIIHLAQMKGLQRSQILPTEEYEEAMSTMQVSQLDLFRLLDQNRDGHLQLREVLAQTRLGNGWWMTPESIQEMYAAIKADPDADGVLSLQEFSNMDLRDFHKYMRSHKAESSELVRNSHHTWLYQGEGAHHIMRAIRQRVLRLTRLSPEIVELSEPLQVVRYGEGGHYHAHVDSGPVYPETICSHTKLVANESVPFETSCRYMTVLFYLNNVTGGGETVFPVADNRTYDEMSLIQDDVDLRDTRRHCDKGNLRVKPQQGTAVFWYNYLPDGQGWVGDVDDYSLHGGCLVTRGTKWIANNWINVDPSRARQALFQQEMARLAREGGTDSQPEWALDRAYRDARVEL | almost completely resistant | equally sensitive | less sensitive | ~80% | reduced | completely abolished | less active | disappearance | by a factor two less active
3 | PH-alpha(I): human collagen prolyl 4-hydroxylase alpha (I) (Gene bank accession number U14620), expressed from pcDNA3 (protein) HPGFFTSIGQMTDLIHTEKDLVTSLKDYIKAEEDKLEQIKKWAEKLDRLTSTATKDPEGFVGHPVNAFKLMKRLNTEWSELENLVLKDMSDGFISNLTIQRQYFPNDEDQVGAAKALLRLQDTYNLDTDTISKGNLPGVKHKSFLTAEDCFELGKVAYTEADYYHTELWMEQALRQLDEGEISTIDKVSVLDYLSYAVYQQGDLDKALLLTKKLLELDPEHQRANGNLKYFEYIMAKEKDVNKSASDDQSDQKTTPKKKGVAVDYLPERQKYEMLCRGEGIKMTPRRQKKLFCRYHDGNRNPKFILAPAKQEDEWDKPRIIRFHDIISDAEIEIVKDLAKPRLSRATVHDPETGKLTTAQYRVSKSAWLSGYENPVVSRINMRIQDLTGLDVSTAEELQVANYGVGGQYEPHFDFARKDEPDAFKELGTGNRIATWLFYMSDVSAGGATVFPEVGASVWPKKGTAVFWYNLFASGEGDYSTRHAACPVLVGNKWVSNKWLHERGQEFRRPCTLSELE |  |  |  | did not reduce |  |  |  |  | 
